Laboratory results taken from patent publication US7666582B2, “IdeS, an IgG-degrading enzyme of Streptococcus pyogenes” (Hansa Medical Research AB, priority 2001, dated 2010).

Columns and labels:
[1] = system: human IgG; assay: IdeS cleavage assay of Ig classes: IgG; type: biochemical
Experimental: For standard IdeS activity assays, bacteria cultures were grown to OD620=0.4. Bacteria were pelleted by centrifugation and supernatants were sterile-filtered through a 0.22 μm membrane (Millipore) prior to use. For activity assays, […] of supernatant were mixed with 5 μl of IgG (10 mg/ml, Sigma) and the volume was adjusted with PBS to 100 μl. For screening of IdeS activity in different S. progenes strains, E64 was added to a final concentration of 40 μM. The mixtures were incubated at 37° C. for 30 min and samples were analyzed by 12% SDS-PAGE. For cleavage assays of different classes of Ig, purified IdeS (0.3 μg/ml) was incubated with 3 μg Ig for 2 h at 37° C., and analyzed by 12% SDS-PAGE analysis.

[2] = system: goat IgG; assay: IdeS species restrictions: goat IgG; type: biochemical
[3] = system: murine IgG; assay: IdeS species restrictions: murine IgG; type: biochemical
[4] = biological target: T1, fibrinogen (Homo sapiens, UniProt P02671+P02675+P02679); assay: IdeS cleavage of other human proteins: fibrinogen; type: biochemical
T1 sequence (P02671 20-629 limits assumed): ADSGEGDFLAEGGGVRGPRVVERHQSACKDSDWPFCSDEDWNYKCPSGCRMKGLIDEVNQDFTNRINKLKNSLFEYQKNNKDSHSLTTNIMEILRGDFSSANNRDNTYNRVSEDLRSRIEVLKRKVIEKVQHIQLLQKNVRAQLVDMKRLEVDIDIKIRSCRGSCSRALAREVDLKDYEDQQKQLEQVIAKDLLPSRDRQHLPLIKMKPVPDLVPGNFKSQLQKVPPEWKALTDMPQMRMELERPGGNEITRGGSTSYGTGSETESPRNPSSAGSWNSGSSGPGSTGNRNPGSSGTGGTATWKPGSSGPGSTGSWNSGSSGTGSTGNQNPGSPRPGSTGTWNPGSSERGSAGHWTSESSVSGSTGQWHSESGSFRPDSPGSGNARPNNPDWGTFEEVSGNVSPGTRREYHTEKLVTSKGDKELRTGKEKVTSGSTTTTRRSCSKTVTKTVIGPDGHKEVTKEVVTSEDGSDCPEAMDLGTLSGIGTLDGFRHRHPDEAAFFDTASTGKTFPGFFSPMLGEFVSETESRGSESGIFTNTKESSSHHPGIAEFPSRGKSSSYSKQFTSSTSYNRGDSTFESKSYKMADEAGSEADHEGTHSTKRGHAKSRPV
T1 sequence (P02675 31-491): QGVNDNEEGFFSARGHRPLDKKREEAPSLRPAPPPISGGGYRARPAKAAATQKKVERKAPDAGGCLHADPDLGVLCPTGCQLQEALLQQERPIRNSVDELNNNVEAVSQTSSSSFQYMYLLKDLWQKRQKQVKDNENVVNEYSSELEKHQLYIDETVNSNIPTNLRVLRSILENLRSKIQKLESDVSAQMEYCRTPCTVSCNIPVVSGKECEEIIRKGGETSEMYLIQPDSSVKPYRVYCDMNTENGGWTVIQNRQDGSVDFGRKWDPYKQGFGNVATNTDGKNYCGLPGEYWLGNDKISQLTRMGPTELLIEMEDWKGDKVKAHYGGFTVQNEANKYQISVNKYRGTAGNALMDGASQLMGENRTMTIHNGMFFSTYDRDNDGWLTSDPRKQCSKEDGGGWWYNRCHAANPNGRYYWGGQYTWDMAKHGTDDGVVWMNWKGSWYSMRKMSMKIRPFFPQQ
T1 sequence (P02679 27-453): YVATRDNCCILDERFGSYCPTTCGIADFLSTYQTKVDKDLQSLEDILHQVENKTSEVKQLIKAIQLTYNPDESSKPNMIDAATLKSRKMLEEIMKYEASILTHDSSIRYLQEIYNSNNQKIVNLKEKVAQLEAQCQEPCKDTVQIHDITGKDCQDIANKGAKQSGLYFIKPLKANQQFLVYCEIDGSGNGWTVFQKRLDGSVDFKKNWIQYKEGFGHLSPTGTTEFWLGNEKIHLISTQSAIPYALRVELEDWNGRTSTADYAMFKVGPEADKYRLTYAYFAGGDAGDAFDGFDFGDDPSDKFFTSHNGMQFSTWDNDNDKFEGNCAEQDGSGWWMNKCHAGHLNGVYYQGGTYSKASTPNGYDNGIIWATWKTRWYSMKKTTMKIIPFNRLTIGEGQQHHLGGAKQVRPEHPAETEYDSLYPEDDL

[5] = biological target: lactoferrin (Homo sapiens, UniProt P02788); assay: IdeS cleavage of other human proteins: lactoferrin; type: biochemical
Sequence of lactoferrin (P02788 20-710): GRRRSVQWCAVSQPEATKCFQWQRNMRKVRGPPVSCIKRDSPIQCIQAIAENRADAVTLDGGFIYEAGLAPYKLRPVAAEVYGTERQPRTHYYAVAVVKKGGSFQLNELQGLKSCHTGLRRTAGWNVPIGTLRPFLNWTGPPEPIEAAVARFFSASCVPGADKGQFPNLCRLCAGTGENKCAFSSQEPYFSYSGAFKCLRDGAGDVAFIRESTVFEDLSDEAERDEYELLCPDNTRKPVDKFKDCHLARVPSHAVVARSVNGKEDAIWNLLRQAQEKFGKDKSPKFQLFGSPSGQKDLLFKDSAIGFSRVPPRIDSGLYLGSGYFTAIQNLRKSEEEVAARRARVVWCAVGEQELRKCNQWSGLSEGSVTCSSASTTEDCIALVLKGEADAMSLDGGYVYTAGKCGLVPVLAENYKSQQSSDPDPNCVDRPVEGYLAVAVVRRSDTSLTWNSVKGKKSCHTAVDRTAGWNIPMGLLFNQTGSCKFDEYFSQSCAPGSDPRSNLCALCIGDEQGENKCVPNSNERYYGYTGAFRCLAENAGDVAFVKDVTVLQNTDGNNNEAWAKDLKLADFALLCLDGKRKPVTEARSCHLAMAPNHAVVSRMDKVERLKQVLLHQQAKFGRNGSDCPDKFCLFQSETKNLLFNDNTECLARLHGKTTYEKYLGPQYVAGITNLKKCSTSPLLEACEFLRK

[6] = biological target: α 1-antitrypsin (Homo sapiens, UniProt P01009); assay: IdeS cleavage of other human proteins: α 1-antitrypsin; type: biochemical
Sequence of α 1-antitrypsin (P01009 25-418): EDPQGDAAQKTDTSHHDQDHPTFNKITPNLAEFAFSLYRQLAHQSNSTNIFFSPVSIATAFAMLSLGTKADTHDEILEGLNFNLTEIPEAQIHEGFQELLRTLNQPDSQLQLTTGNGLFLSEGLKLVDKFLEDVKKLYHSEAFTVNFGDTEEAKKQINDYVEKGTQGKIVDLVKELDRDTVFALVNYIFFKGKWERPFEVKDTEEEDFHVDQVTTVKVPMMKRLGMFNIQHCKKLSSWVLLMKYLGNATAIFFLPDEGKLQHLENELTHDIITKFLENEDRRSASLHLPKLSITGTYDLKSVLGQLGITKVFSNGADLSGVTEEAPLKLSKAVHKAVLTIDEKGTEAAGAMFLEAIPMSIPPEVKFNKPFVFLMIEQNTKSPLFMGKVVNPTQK

[7] = biological target: T2, cystatin C (Homo sapiens, UniProt P01034); assay: IdeS cleavage of other human proteins: cystatin C; type: biochemical
T2 sequence (P01034 27-146): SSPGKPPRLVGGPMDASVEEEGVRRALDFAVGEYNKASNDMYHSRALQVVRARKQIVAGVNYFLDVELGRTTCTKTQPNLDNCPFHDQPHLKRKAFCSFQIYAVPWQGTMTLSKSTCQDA

[8] = biological target: T3, cystatin C (Gallus gallus, UniProt P01038); assay: IdeS incubation with chicken cystatin C; type: biochemical
T3 sequence (P01038 24-139): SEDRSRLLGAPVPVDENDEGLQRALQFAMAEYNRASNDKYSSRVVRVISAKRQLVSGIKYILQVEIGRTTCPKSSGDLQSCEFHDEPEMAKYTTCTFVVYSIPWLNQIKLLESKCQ

[9] = biological target: T4, cystatin C (Rattus norvegicus, UniProt P14841); assay: IdeS incubation with rat cystatin C; type: biochemical
T4 sequence (P14841 21-140): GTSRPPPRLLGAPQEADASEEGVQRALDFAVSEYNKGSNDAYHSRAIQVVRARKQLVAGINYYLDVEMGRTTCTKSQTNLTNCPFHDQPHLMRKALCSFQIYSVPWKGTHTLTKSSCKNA

[10] = IdeS activity towards peptides: Z-LVG-CHN2; type: biochemical; details: excess IdeS
[11] = system: Fc-fragment generated by papain cleavage, including 12 amino acids of the hinge region; assay: IdeS cleavage of papain-generated Fc-fragment; type: biochemical, human

B1: IdeS: new extracellular cysteine protease produced by S. pyogenes, highly specific for IgG; SEQ ID NO: 1 (protein)
chain: DSFSANQEIRYSEVTPYHVTSVWTKGVTPPANFTQGEDVFHAPYVANQGWYDITKTFNGKDDLLCGAATAGNMLHWWFDQNKDQIKRYLEEHPEKQKINFNGEQMFDVKEAIDTKNHQLDSKLFEYFKEKAFPYLSTKHLGVFPDHVIDMFINGYRLSLTNHGPTPVKEGSKDPRGGIFDAVFTRGDQSKLLTSRHDFKEKNLKEISDLIKKELTEGKALGLSHTYANVRINHVINLWGADFDSNGNLKAIYVTDSDSNASIGMKKYFVGVNSAGKVAISAKEIKEDNIGAQVLGLFTLSTGQDSWNQTN
modifications: S. Pyogenes
In the case of B1, the “degradation of human IgG” value ([1]; purified IdeS, 2 h at 37° C.) is reported as “only IgG was degraded”, the “cleavage of human IgG” value ([1]; species restrictions) is reported as “cleave” and the “cleavage of goat IgG” value [2] is reported as “cleave”. For the same molecule, the “cleavage of murine IgG” value [3] was “not murine IgG”, the “cleavage products, fibrinogen” value [4] was “No cleavage products could be detected” and the “cleavage products, lactoferrin” value [5] was “No cleavage products could be detected”. The “cleavage products, α 1-antitrypsin” value [6] was “No cleavage products could be detected”, the “cleavage products, cystatin C” value [7] was “No cleavage products could be detected” and the “cleavage products, cystatin C from chicken” value [8] was “No cleavage products could be observed”. The “cleavage products, cystatin C from rat” value [9] was “No cleavage products could be observed”, the “cleavage of Z-LVG-CHN2” value [10] was “Neither was the synthetic peptide Z-LVG-CHN2, which inhibits IdeS activity, cleaved” and the “cleavage of papain-generated Fc-fragment” value [11] was “is cleaved”.
